One molecule from patent publication US20260125448A1 (published 2026) can be followed below.

The assay concerns the target T1, MAGE-A4 (peptide named MA4-286) peptide on HLA-A*02:01 (human).
T1 peptide: KVLEHVVRV
Put plainly: multimer staining.

B1: MA4-286 G6 TCR (TCR, V domains shown)
Valpha: AQTVTQSQPEMSVQEAETVTLSCTYDTSENNYYLFWYKQPPSRQMILVIRQEAYKQQNATENRFSVNFQKAAKSFSLKISDSQLGDTAMYFCASHSGAGSYQLTFGKGTKLSVIP
Vbeta: DTGVSQDPRHKITKRGQNVTFRCDPISEHNRLYWYRQTLGQGPEFLTYFQNEAQLEKSRLLSDRFSAERPKGSFSTLEIQRTEQGDSAMYLCASSPTGGFYEQYFGPGTRLTVT
As for B1, the binding result is “recognises”.
